The target of test [1] is T1, human CD40 expressed on CHO cells (human, UniProt P25942 21-277).
T1 construct: whole, on cells; also used for the reporter cells over-expressing human CD40; also called cellular CD40; CHO-CD40 cells
Put plainly: FACS, CHO cells. For orientation: In flow cytometry, cells or beads pass a laser one at a time.

Test [2] deals with T2, human B7H4 expressed on CHO cells (human, UniProt Q7Z7D3 25-282).
T2 construct: whole, on cells; also called VCTN1
T2 sequence (looked up): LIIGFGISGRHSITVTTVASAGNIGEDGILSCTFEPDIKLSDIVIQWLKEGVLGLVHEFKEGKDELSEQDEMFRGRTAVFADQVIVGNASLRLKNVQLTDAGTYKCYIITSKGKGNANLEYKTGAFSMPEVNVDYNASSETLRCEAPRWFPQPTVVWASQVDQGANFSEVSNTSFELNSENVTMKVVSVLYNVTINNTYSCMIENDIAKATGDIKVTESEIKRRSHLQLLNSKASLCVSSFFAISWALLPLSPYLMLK
Put plainly: FACS, CHO cells.

T1 sequence (P25942 21-277): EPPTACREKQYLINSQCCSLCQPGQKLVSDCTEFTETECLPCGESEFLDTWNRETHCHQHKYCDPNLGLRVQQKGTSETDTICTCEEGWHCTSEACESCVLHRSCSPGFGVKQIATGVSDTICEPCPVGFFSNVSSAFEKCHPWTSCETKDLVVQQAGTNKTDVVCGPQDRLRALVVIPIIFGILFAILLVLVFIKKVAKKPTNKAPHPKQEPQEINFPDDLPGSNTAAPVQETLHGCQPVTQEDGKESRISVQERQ

B1: Ly622 (bispecific antibody, human IgG1, kappa)
heavy: EVQLVESGGGLVQPGGSLRLSCAASGFTFTDYTMDWVRQAPGKGLEWVADVNPNSGGSIYNQRFKGRFTLSVDRSKNTLYLQMNSLRAEDTAVYYCARNLGPSFYFDYWGQGTLVTVSSASTKGPSVFPLAPSSKSTSGGTAALGCLVKDYFPEPVTVSWNSGALTSGVHTFPAVLQSSGLYSLSSVVTVPSSSLGTQTYICNVNHKPSNTKVDKKVEPKSCDKTHTCPPCPAPELLGPSVFLFPPKPKDTLMISRTPEVTCVVVDVSHEDPEVKFNWYVDGVEVHNAKTKPREEQYNSTYRVVSVLTVLHQDWLNGKEYKCKVSNKALPAPIEKTISKAKGQPREPQVYTLPPSREEMTKNQVSLTCLVKGFYPSDIAVEWESNGQPENNYKTTPPVLDSDGSFFLYSKLTVDKSRWQQGNVFSCSVMHEALHNHYTQKSLSLSPGGGGGSGGGGSGGGGSGGGGSDIQMTQSPSSLSASVGDRVTITCKASQNIYIYLNWYQQKPGKAPKLLIYNTNNLQTGVPSRFSGSGSGTDFTLTISSLQPEDFATYYCLQHSSRRTFGGGTKVEIKGGGGSGGGGSGGGGSGGGGSQVQLVESGGGLVQPGGSLKLSCATSGFNFNDYFMNWVRQASGKGLEWVGQIRNKNYNYATYYTESLEGRVTISRDDSKNTAYLQMNSLKTEDTAVYYCTSYYYDGFADYFDYWGQGTTVTVSS
light: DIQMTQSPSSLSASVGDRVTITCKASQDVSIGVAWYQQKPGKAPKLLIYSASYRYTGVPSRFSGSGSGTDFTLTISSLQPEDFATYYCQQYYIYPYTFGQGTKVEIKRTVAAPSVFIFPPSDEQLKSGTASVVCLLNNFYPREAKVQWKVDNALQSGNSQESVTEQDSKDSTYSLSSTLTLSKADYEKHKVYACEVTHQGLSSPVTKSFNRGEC
notes: Ly591 HC (IgG1 mutated Fc)-TM740 scFv VL-VH + Ly591 LC
Take B1: the binding result in test [1] was “binds”.

B2: Ly825 (bispecific antibody, human IgG1, kappa)
heavy: EVQLVESGGGLVQPGGSLRLSCAASGFTFTDYTMDWVRQAPGKGLEWVADVNPNSGGSIYNQRFKGRFTLSVDRSKNTLYLQMNSLRAEDTAVYYCARNLGPSFYFDYWGQGTLVTVSSASTKGPSVFPLAPSSKSTSGGTAALGCLVKDYFPEPVTVSWNSGALTSGVHTFPAVLQSSGLYSLSSVVTVPSSSLGTQTYICNVNHKPSNTKVDKKVEPKSCDKTHTCPPCPAPELLGPSVFLFPPKPKDTLMISRTPEVTCVVVDVSHEDPEVKFNWYVDGVEVHNAKTKPREEQYNSTYRVVSVLTVLHQDWLNGKEYKCKVSNKALPAPIEKTISKAKGQPREPQVYTLPPSREEMTKNQVSLTCLVKGFYPSDIAVEWESNGQPENNYKTTPPVLDSDGSFFLYSKLTVDKSRWQQGNVFSCSVMHEALHNHYTQKSLSLSPG
light: not shown
notes: Ly591 HC (IgG1 mutated Fc) + Ly591 LC-TM740 scFv VL-VH
For B2, the binding result in test [1] was “binds”.

B3: Ly836 (bispecific antibody, human IgG1, kappa)
heavy: B2 heavy
light: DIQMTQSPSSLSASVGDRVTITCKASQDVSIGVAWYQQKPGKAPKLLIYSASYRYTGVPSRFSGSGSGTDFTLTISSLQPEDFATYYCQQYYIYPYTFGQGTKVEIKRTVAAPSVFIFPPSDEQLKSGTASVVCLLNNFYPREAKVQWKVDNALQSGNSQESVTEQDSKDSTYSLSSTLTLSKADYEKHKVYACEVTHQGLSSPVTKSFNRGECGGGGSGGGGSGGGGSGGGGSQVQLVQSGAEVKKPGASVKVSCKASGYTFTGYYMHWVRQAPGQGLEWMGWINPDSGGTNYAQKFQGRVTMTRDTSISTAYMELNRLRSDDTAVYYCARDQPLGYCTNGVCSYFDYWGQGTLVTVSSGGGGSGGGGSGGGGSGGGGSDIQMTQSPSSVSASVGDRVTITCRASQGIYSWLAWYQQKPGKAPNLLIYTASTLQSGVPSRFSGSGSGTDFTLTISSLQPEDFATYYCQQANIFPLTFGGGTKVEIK
notes: Ly591 HC (IgG1 mutated Fc) + Ly591 LC-Ly253 scFv VH-VL
For B3, the binding result in test [1] was “binds”.

B4: Ly827 (bispecific antibody, human IgG1, kappa)
heavy: B2 heavy
light: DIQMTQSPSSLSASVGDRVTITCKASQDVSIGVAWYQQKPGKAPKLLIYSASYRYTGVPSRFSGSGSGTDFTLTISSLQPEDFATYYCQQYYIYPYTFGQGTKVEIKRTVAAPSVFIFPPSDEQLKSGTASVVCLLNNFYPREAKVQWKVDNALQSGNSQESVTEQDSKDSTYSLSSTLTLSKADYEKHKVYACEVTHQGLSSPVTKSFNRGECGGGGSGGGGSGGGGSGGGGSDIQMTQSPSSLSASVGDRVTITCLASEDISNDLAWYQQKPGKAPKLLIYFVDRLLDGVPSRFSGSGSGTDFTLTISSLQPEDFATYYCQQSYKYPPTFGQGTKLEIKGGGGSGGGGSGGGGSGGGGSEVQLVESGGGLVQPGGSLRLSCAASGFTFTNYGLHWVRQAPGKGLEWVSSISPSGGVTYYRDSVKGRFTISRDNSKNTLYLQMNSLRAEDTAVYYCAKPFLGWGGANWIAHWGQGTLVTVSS
notes: Ly591 HC (IgG1 mutated Fc) + Ly591 LC-TM559 scFv VL-VH
As to B4, in test [1], the binding result was “binds”.

B5: Ly835 (bispecific antibody, human IgG1, kappa)
heavy: B2 heavy
light: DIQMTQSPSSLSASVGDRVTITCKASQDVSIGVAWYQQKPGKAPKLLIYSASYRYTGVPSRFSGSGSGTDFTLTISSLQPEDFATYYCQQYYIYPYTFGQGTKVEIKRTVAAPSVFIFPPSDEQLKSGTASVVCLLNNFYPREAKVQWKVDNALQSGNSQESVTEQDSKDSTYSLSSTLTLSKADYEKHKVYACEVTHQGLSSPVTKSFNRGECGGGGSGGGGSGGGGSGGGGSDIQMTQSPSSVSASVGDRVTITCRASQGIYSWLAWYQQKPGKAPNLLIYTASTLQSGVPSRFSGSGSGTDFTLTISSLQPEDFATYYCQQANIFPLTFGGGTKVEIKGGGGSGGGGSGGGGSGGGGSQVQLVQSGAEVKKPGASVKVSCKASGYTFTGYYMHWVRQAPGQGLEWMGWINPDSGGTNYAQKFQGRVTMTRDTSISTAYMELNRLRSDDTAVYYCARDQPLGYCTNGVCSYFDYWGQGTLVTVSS
notes: Ly591 HC (IgG1 mutated Fc) + Ly591 LC-Ly253 scFv VL-VH
On to B5, for which the binding result in test [1] is given as “binds”.

B6: Ly828 (bispecific antibody, human IgG1, kappa)
heavy: B2 heavy
light: not shown
notes: Ly591 HC (IgG1 mutated Fc) + Ly591 LC-TM559 scFv VH-VL
Take B6: the binding result in test [1] is “binds”.

B7: Ly826 (bispecific antibody, human IgG1, kappa)
heavy: B2 heavy
light: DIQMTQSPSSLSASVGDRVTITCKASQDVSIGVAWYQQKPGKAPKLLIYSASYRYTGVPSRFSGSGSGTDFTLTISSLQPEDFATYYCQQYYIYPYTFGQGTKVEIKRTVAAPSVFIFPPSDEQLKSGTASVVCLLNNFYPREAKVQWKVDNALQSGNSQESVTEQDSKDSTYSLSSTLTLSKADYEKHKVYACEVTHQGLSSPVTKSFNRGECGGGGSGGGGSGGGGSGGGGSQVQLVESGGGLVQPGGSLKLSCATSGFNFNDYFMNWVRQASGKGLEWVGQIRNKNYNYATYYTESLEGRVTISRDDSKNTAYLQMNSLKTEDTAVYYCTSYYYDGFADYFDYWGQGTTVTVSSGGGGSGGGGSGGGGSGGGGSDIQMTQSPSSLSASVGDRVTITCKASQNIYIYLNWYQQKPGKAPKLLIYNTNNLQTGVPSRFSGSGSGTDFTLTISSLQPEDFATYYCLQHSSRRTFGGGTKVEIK
notes: Ly591 HC (IgG1 mutated Fc) + Ly591 LC-TM740 scFv VH-VL
For the molecule B7, in test [1], the binding result was “binds”.

B8: LP3772 (antibody, human IgG4 S228P, kappa)
heavy: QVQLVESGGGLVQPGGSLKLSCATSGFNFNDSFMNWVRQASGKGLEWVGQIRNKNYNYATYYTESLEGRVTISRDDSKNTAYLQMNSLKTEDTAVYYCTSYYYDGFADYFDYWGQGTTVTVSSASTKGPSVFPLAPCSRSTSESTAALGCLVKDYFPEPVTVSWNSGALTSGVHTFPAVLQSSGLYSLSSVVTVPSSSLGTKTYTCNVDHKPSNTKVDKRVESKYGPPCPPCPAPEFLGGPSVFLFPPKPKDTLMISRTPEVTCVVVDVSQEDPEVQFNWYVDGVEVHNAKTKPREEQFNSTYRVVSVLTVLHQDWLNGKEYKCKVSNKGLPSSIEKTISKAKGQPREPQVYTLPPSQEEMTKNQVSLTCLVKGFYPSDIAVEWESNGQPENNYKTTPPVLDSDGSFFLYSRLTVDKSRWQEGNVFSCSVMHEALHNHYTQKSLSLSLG
light: DIQMTQSPSSLSASVGDRVTITCKASQNIYIYLNWYQQKPGKAPKLLIYNTNNLQTGVPSRFSGSGSGTDFTLTISSLQPEDFATYYCLQHSSRRTFGGGTKVEIKRTVAAPSVFIFPPSDEQLKSGTASVVCLLNNFYPREAKVQWKVDNALQSGNSQESVTEQDSKDSTYSLSSTLTLSKADYEKHKVYACEVTHQGLSSPVTKSFNRGEC
notes: VH-2/IgG4, VL-1/kappa
Turning to B8, the binding result in test [1] was “binds”.

B9: Ly625 (bispecific antibody, human IgG1, kappa)
heavy: EVQLVESGGGLVQPGGSLRLSCAASGFTFTDYTMDWVRQAPGKGLEWVADVNPNSGGSIYNQRFKGRFTLSVDRSKNTLYLQMNSLRAEDTAVYYCARNLGPSFYFDYWGQGTLVTVSSASTKGPSVFPLAPSSKSTSGGTAALGCLVKDYFPEPVTVSWNSGALTSGVHTFPAVLQSSGLYSLSSVVTVPSSSLGTQTYICNVNHKPSNTKVDKKVEPKSCDKTHTCPPCPAPELLGPSVFLFPPKPKDTLMISRTPEVTCVVVDVSHEDPEVKFNWYVDGVEVHNAKTKPREEQYNSTYRVVSVLTVLHQDWLNGKEYKCKVSNKALPAPIEKTISKAKGQPREPQVYTLPPSREEMTKNQVSLTCLVKGFYPSDIAVEWESNGQPENNYKTTPPVLDSDGSFFLYSKLTVDKSRWQQGNVFSCSVMHEALHNHYTQKSLSLSPGGGGGSGGGGSGGGGSGGGGSEVQLVESGGGLVQPGGSLRLSCAASGFTFTNYGLHWVRQAPGKGLEWVSSISPSGGVTYYRDSVKGRFTISRDNSKNTLYLQMNSLRAEDTAVYYCAKPFLGWGGANWIAHWGQGTLVTVSSGGGGSGGGGSGGGGSGGGGSDIQMTQSPSSLSASVGDRVTITCLASEDISNDLAWYQQKPGKAPKLLIYFVDRLLDGVPSRFSGSGSGTDFTLTISSLQPEDFATYYCQQSYKYPPTFGQGTKLEIK
light: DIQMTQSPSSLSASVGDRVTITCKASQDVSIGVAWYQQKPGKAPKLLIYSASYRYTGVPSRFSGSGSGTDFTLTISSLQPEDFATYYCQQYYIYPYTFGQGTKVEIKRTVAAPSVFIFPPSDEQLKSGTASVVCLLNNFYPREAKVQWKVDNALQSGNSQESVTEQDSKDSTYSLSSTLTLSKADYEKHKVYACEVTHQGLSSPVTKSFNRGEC
notes: Ly591 HC (IgG1 mutated Fc)-TM559 (printed TM599) scFv VH-VL + Ly591 LC
As for B9, the binding result in test [1] is listed as “binds”.

B10: Ly624 (bispecific antibody, human IgG1, kappa)
heavy: EVQLVESGGGLVQPGGSLRLSCAASGFTFTDYTMDWVRQAPGKGLEWVADVNPNSGGSIYNQRFKGRFTLSVDRSKNTLYLQMNSLRAEDTAVYYCARNLGPSFYFDYWGQGTLVTVSSASTKGPSVFPLAPSSKSTSGGTAALGCLVKDYFPEPVTVSWNSGALTSGVHTFPAVLQSSGLYSLSSVVTVPSSSLGTQTYICNVNHKPSNTKVDKKVEPKSCDKTHTCPPCPAPELLGPSVFLFPPKPKDTLMISRTPEVTCVVVDVSHEDPEVKFNWYVDGVEVHNAKTKPREEQYNSTYRVVSVLTVLHQDWLNGKEYKCKVSNKALPAPIEKTISKAKGQPREPQVYTLPPSREEMTKNQVSLTCLVKGFYPSDIAVEWESNGQPENNYKTTPPVLDSDGSFFLYSKLTVDKSRWQQGNVFSCSVMHEALHNHYTQKSLSLSPGGGGGSGGGGSGGGGSGGGGSDIQMTQSPSSLSASVGDRVTITCLASEDISNDLAWYQQKPGKAPKLLIYFVDRLLDGVPSRFSGSGSGTDFTLTISSLQPEDFATYYCQQSYKYPPTFGQGTKLEIKGGGGSGGGGSGGGGSGGGGSEVQLVESGGGLVQPGGSLRLSCAASGFTFTNYGLHWVRQAPGKGLEWVSSISPSGGVTYYRDSVKGRFTISRDNSKNTLYLQMNSLRAEDTAVYYCAKPFLGWGGANWIAHWGQGTLVTVSS
light: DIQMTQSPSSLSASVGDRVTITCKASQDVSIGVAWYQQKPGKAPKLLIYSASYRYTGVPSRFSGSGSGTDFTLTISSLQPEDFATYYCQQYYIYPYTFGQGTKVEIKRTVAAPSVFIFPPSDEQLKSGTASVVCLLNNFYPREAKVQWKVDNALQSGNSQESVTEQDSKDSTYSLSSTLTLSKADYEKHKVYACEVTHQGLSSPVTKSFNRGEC
notes: Ly591 HC (IgG1 mutated Fc)-TM559 (printed TM599) scFv VL-VH + Ly591 LC
Turning to B10, the binding result in test [1] was “binds”.

B11: Ly813 (bispecific antibody, human IgG1, kappa)
heavy: not shown
light: ENVLTQSPAIMSVSPGEKVTMTCRASSSVSSSYLHWYQQKSGASPKFWIYSTSNLASGVPARFSGSGSGTSYSLTISSVEAEDAATYYCQHYSGYPLTFGAGTKLELRRTVAAPSVFIFPPSDEQLKSGTASVVCLLNNFYPREAKVQWKVDNALQSGNSQESVTEQDSKDSTYSLSSTLTLSKADYEKHKVYACEVTHQGLSSPVTKSFNRGEC
notes: Ly387 HC (IgG1 mutated Fc)-Ly253 scFv VL-VH + Ly387 LC
For the molecule B11, the binding result in test [1] is recorded as “binds”.

B12: Ly814 (bispecific antibody, human IgG1, kappa)
heavy: not shown
light: B11 light
notes: Ly387 HC-Ly253 scFv VH-VL + Ly387 LC
B12: the binding result in test [1] was “binds”.

B13: Ly366 (chimeric) (antibody, human IgG1, kappa, V domains shown)
VH: EVQLVESGGGLVKPGGSLKLSCAASGFTFSDSGMHWVRQAPEKGLEWITYINSGSSTIYYADSVKGRFTISRDNAKNTLFLQMTSLRSEDTAMYYCARGRGYAMDYWGQGTSVTVSS
VL: EIVLTQSPTTMAASPGEKITIFCSASSSISSDFLHWYQQKPGFSPKLLIYRISNLASGVPARFSGSGSGTSYSLTIGTMEAEDVATYYCQQGSNVPRTFGGGTKLEIKR
notes: chimeric, human IgG1 constant region; also called hybridoma 25F3
As for B13, the binding result in test [2] is listed as “binds”.

B14: Ly815 (bispecific antibody, human IgG1, kappa)
heavy: QVQLQQPGAELVKPGASVKLSCKASGYTFTSYWMHWVKQRPGQGLEWIGMIHPNSGGTNYNEKFKGKGTLTVDKSSSTAYMQLSSLTSDDSAVYYCVTSQATWFAYWGQGTLVTVSAASTKGPSVFPLAPSSKSTSGGTAALGCLVKDYFPEPVTVSWNSGALTSGVHTFPAVLQSSGLYSLSSVVTVPSSSLGTQTYICNVNHKPSNTKVDKKVEPKSCDKTHTCPPCPAPELLGPSVFLFPPKPKDTLMISRTPEVTCVVVDVSHEDPEVKFNWYVDGVEVHNAKTKPREEQYNSTYRVVSVLTVLHQDWLNGKEYKCKVSNKALPAPIEKTISKAKGQPREPQVYTLPPSREEMTKNQVSLTCLVKGFYPSDIAVEWESNGQPENNYKTTPPVLDSDGSFFLYSKLTVDKSRWQQGNVFSCSVMHEALHNHYTQKSLSLSPG
light: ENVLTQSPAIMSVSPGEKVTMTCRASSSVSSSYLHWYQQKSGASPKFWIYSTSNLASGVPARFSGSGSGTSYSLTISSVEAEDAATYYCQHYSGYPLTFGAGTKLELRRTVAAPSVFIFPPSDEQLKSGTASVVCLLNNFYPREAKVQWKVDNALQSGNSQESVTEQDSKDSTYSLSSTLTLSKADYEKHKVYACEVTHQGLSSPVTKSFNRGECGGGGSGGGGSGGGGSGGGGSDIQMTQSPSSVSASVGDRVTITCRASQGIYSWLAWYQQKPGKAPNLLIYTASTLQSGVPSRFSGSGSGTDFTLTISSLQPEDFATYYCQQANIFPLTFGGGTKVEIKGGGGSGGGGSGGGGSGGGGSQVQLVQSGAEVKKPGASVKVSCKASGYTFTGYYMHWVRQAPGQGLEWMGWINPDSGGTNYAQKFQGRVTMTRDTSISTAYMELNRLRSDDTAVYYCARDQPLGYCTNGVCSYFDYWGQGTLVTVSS
notes: Ly387 HC (IgG1 mutated Fc) + Ly387 LC-Ly253 scFv VL-VH
Regarding B14, the binding result in test [1] is on record as “binds”.

B15: Ly816 (bispecific antibody, human IgG1, kappa)
heavy: B14 heavy
light: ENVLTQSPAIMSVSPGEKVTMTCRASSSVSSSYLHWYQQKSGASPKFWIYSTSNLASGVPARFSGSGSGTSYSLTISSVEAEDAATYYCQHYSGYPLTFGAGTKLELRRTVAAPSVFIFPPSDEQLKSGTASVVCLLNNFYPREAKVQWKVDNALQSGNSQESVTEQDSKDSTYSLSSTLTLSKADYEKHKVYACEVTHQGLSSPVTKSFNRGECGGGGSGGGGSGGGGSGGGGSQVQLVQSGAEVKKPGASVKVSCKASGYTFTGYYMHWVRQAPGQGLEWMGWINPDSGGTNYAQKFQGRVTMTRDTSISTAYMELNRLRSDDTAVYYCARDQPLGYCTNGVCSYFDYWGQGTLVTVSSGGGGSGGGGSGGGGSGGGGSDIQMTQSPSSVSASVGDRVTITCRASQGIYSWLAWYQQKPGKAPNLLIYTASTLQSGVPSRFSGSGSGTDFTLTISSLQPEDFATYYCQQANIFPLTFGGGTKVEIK
notes: Ly387 HC (IgG1 mutated Fc) + Ly387 LC-Ly253 scFv VH-VL
Regarding B15, in test [1], the binding result is recorded as “binds”.

B16: Ly361 (chimeric) (antibody, human IgG1, kappa, V domains shown)
VH: EVQLVESGGDLVKPGGSLKLSCAASGFTFSSYGMSWVRQTPDKRLEWVAAISTGGSYTYYPDSVKGRFTISRDTATNTLYLQMSTLKSEDTAMYYCTRRGATGSWFAYWGQGTLVTVSA
VL: DILMTQSPSSMSVSLGDTVSITCHASQGINNNIGWLQRKPGKSFKGLIYHGTNLEDGVPSRFSGSGSGADYSLTISSLESEDFADYYCVQYVQFPRTFGGGTKLEIKR
notes: chimeric, human IgG1 constant region; also called hybridoma 14D3
On to B16, for which the binding result in test [2] is recorded as “binds”.

B17: Ly623 (bispecific antibody, human IgG1, kappa)
heavy: EVQLVESGGGLVQPGGSLRLSCAASGFTFTDYTMDWVRQAPGKGLEWVADVNPNSGGSIYNQRFKGRFTLSVDRSKNTLYLQMNSLRAEDTAVYYCARNLGPSFYFDYWGQGTLVTVSSASTKGPSVFPLAPSSKSTSGGTAALGCLVKDYFPEPVTVSWNSGALTSGVHTFPAVLQSSGLYSLSSVVTVPSSSLGTQTYICNVNHKPSNTKVDKKVEPKSCDKTHTCPPCPAPELLGPSVFLFPPKPKDTLMISRTPEVTCVVVDVSHEDPEVKFNWYVDGVEVHNAKTKPREEQYNSTYRVVSVLTVLHQDWLNGKEYKCKVSNKALPAPIEKTISKAKGQPREPQVYTLPPSREEMTKNQVSLTCLVKGFYPSDIAVEWESNGQPENNYKTTPPVLDSDGSFFLYSKLTVDKSRWQQGNVFSCSVMHEALHNHYTQKSLSLSPGGGGGSGGGGSGGGGSGGGGSQVQLVESGGGLVQPGGSLKLSCATSGFNFNDYFMNWVRQASGKGLEWVGQIRNKNYNYATYYTESLEGRVTISRDDSKNTAYLQMNSLKTEDTAVYYCTSYYYDGFADYFDYWGQGTTVTVSSGGGGSGGGGSGGGGSGGGGSDIQMTQSPSSLSASVGDRVTITCKASQNIYIYLNWYQQKPGKAPKLLIYNTNNLQTGVPSRFSGSGSGTDFTLTISSLQPEDFATYYCLQHSSRRTFGGGTKVEIK
light: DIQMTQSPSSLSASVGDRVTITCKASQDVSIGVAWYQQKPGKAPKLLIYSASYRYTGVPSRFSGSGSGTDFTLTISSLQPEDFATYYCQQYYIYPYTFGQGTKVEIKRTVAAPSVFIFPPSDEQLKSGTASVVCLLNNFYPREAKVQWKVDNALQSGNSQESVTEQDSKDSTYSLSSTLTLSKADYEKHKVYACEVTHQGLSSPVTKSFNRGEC
notes: Ly591 HC (IgG1 mutated Fc)-TM740 scFv VH-VL + Ly591 LC
Turning to B17, the binding result in test [1] is “binds”.
